In patent US20230322953A1 (HARBOUR BIOMED SHANGHAI, published 2023):

How the values were obtained:
[1] = target: T1, human PD-L1 on cells (CHO-K1/hPDL1; MDA-MB-231) (human, UniProt Q9NZQ7 19-290); experiment: FACS, CHO-K1/hPDL1 cells (Experiment 2)
T1 construct: whole, on cells

[2] = target: T2, human CTLA4 on cells (CHO-K1/hCTLA4; HEK293/hCTLA4; 293F-hCTLA4) (human, UniProt P16410 36-223); experiment: competition FACS: biotinylated B7-1-Fc to CHO-K1/hCTLA4 cells (Test 2)
T2 construct: whole, on cells
T2 sequence (P16410 36-223): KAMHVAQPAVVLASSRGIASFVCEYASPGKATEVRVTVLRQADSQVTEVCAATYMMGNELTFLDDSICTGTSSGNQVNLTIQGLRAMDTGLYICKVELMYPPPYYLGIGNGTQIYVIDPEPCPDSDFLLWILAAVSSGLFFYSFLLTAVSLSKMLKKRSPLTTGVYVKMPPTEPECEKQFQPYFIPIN

[3] = target: T2, human CTLA4 on cells (CHO-K1/hCTLA4; …); experiment: FACS, CHO-K1/hCTLA4 cells (Test 2)
[4] = target: T1, human PD-L1 on cells (CHO-K1/hPDL1; …); experiment: competition FACS: biotinylated PD-1 to CHO-K1/hPDL1 cells (Experiment 2)
[5] = target: T1, human PD-L1 on cells (CHO-K1/hPDL1; …); experiment: competition FACS: biotinylated PD-1 to CHO-K1/hPDL1 cells

T1 sequence (Q9NZQ7 19-290): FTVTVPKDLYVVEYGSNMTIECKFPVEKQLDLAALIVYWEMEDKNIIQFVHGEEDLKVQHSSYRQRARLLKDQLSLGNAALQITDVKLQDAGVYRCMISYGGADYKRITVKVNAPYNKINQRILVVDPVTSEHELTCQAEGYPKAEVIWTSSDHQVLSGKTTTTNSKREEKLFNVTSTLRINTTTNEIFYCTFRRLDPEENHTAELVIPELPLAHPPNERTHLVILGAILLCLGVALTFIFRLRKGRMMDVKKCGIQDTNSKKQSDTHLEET

B1: PR001574 (bispecific antibody, human IgG1, kappa)
chain: EVQLVESGGGLIQPGGSLRLSCAVSGFTVSKNYMSWVRQAPGKGLEWVSVVYSGGSKTYADSVKGRFTISRDNSKNTLYLQMNSLRAEDTAVYYCARAVPHSPSSFDIWGQGTMVTVSSKLEPKSSDKTHTPPPPPRTDIQMTQSPSTLSASVGDRVTVTCRASQSIYIWLAWYQQKPGKAPNLLIYKASSLETGVPSRFSGSGSGTEFTLTISSLQPDDFATYYCQQYYGSSRTFGQGTKVEIKRTVAAPSVFIFPPSDEQLKSGTASVVCLLNNFYPREAKVQWKVDNALQSGNSQESVTEQDSKDSTYSLSSTLTLSKADYEKHKVYACEVTHQGLSSPVTKSFNRGEC
heavy: not shown
notes: PD-L1×CTLA4, structure 4
- EC50 [1]: 0.93 nM
- Maximum MFI [1]: 6710 MFI
- IC50 [2]: 4.49 nM
- Maximum inhibition rate (%) [2]: 99.8%
- EC50 [3]: 12 nM
- Maximum MFI [3]: 677 MFI
- IC50 [4]: 0.88 nM
- Maximum inhibition rate (%) [4]: 81.1%
- fold poorer IC50 than the parent monoclonal antibody [5]: 2 to 3 fold

B2: PR001575 (bispecific antibody, human IgG1, kappa)
chain 1: EVQLVESGGGLIQPGGSLRLSCAVSGFTVSKNYMSWVRQAPGKGLEWVSVVYSGGSKTYADSVKGRFTISRDNSKNTLYLQMNSLRAEDTAVYYCARAVPHSPSSFDIWGQGTMVTVSSKLEPKSSDKTHTPPPPPRTDIQMTQSPSTLSASVGDRVTVTCRASQSIYIWLAWYQQKPGKAPNLLIYKASSLETGVPSRFSGSGSGTEFTLTISSLQPDDFATYYCQQYYGSSRTFGQGTKVEIKRTVAAPSVFIFPPSDEQLKSGTASVVCLLNNFYPREAKVQWKVDNALQSGNSQESVTEQDSKDSTYSLSSTLTLSKADYEKHKVYACEVTHQGLSSPVTKSFNRGEC
chain 2: not shown
notes: PD-L1×CTLA4, structure 9
- EC50 [1]: 2.41 nM
- Maximum MFI [1]: 5880 MFI
- IC50 [2]: 3.79 nM
- Maximum inhibition rate (%) [2]: 100%
- EC50 [3]: 5.08 nM
- Maximum MFI [3]: 415 MFI
- IC50 [4]: 1.74 nM
- Maximum inhibition rate (%) [4]: 81.7%
- fold poorer IC50 than the parent monoclonal antibody [5]: 4 to 6 fold

B3: PR001572 (bispecific antibody, human IgG1, kappa)
chain 1: EVQLVESGGGLIQPGGSLRLSCAVSGFTVSKNYMSWVRQAPGKGLEWVSVVYSGGSKTYADSVKGRFTISRDNSKNTLYLQMNSLRAEDTAVYYCARAVPHSPSSFDIWGQGTMVTVSSKLEPKSSDKTHTPPPPPRTDIQMTQSPSTLSASVGDRVTVTCRASQSIYIWLAWYQQKPGKAPNLLIYKASSLETGVPSRFSGSGSGTEFTLTISSLQPDDFATYYCQQYYGSSRTFGQGTKVEIKRTVAAPSVFIFPPSDEQLKSGTASVVCLLNNFYPREAKVQWKVDNALQSGNSQESVTEQDSKDSTYSLSSTLTLSKADYEKHKVYACEVTHQGLSSPVTKSFNRGEC
chain 2: not shown
notes: PD-L1×CTLA4, structure 9 2×VH-IgG
- EC50 [1]: 1.07 nM
- Maximum MFI [1]: 5830 MFI
- IC50 [2]: 2.98 nM
- Maximum inhibition rate (%) [2]: 100%
- EC50 [3]: 2.91 nM
- Maximum MFI [3]: 434 MFI
- IC50 [4]: 1.4 nM
- Maximum inhibition rate (%) [4]: 80.7%
- fold poorer IC50 than the parent monoclonal antibody [5]: 4 to 6 fold

B4: PR001577 (bispecific antibody, human IgG1, kappa)
chain: EVQLVESGGGLIQPGGSLRLSCAVSGFTVSKNYMSWVRQAPGKGLEWVSVVYSGGSKTYADSVKGRFTISRDNSKNTLYLQMNSLRAEDTAVYYCARAVPHSPSSFDIWGQGTMVTVSSKLEPKSSDKTHTPPPPPRTDIQMTQSPSTLSASVGDRVTVTCRASQSIYIWLAWYQQKPGKAPNLLIYKASSLETGVPSRFSGSGSGTEFTLTISSLQPDDFATYYCQQYYGSSRTFGQGTKVEIKRTVAAPSVFIFPPSDEQLKSGTASVVCLLNNFYPREAKVQWKVDNALQSGNSQESVTEQDSKDSTYSLSSTLTLSKADYEKHKVYACEVTHQGLSSPVTKSFNRGEC
heavy: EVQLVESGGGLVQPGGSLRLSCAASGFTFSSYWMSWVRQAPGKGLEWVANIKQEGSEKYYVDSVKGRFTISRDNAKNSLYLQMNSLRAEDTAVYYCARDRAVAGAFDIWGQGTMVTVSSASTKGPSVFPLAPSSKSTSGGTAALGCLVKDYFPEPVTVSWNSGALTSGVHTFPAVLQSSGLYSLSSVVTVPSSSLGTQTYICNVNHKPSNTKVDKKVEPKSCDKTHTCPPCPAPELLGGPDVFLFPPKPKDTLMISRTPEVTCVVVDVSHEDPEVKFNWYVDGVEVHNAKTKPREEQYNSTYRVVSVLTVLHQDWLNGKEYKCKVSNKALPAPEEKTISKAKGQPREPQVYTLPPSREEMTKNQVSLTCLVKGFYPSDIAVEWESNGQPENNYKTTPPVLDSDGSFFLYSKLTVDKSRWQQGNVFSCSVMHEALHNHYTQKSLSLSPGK
notes: PD-L1×CTLA4, structure 4, Fc S239D, I332E
- EC50 [1]: 0.96 nM
- Maximum MFI [1]: 6610 MFI
- IC50 [2]: 4.88 nM
- Maximum inhibition rate (%) [2]: 99.7%
- EC50 [3]: 8.52 nM
- Maximum MFI [3]: 585 MFI
- IC50 [4]: 0.61 nM
- Maximum inhibition rate (%) [4]: 81%
- fold poorer IC50 than the parent monoclonal antibody [5]: 2 to 3 fold

B5: PR001609 (bispecific antibody, human IgG1, kappa)
light: DIQMTQSPSTLSASVGDRVTVTCRASQSIYIWLAWYQQKPGKAPNLLIYKASSLETGVPSRFSGSGSGTEFTLTISSLQPDDFATYYCQQYYGSSRTFGQGTKVEIKRTVAAPSVFIFPPSDEQLKSGTASVVCLLNNFYPREAKVQWKVDNALQSGNSQESVTEQDSKDSTYSLSSTLTLSKADYEKHKVYACEVTHQGLSSPVTKSFNRGEC
heavy: not shown
chain: EVQLVESGGGLIQPGGSLRLSCAVSGFTVSKNYMSWVRQAPGKGLEWVSVVYSGGSKTYADSVKGRFTISRDNSKNTLYLQMNSLRAEDTAVYYCARAVPHSPSSFDIWGQGTMVTVSSEPKSSDKTHTCPPCPAPELLGGPSVFLFPPKPKDTLMISRTPEVTCVVVDVSHEDPEVKFNWYVDGVEVHNAKTKPREEQYNSTYRVVSVLTVLHQDWLNGKEYKCKVSNKALPAPIEKTISKAKGQPREPQVCTLPPSREEMTKNQVSLSCAVKGFYPSDIAVEWESNGQPENNYKTTPPVLDSDGSFFLVSKLTVDKSRWQQGNVFSCSVMHEALHNHYTQKSLSLSPGK
notes: PD-L1×CTLA4, structure 11 Fab-Fc-VH, knob/hole
- EC50 [1]: 1.51 nM
- Maximum MFI [1]: 11200 MFI
- IC50 [2]: 98.3 nM
- Maximum inhibition rate (%) [2]: 95%
- Maximum MFI [3]: 355 MFI
- IC50 [4]: 1.12 nM
- Maximum inhibition rate (%) [4]: 81.6%
- fold poorer IC50 than the parent monoclonal antibody [5]: 4 to 5 fold

B6: PR001610 (bispecific antibody, human IgG1, kappa)
light: DIQMTQSPSTLSASVGDRVTVTCRASQSIYIWLAWYQQKPGKAPNLLIYKASSLETGVPSRFSGSGSGTEFTLTISSLQPDDFATYYCQQYYGSSRTFGQGTKVEIKRTVAAPSVFIFPPSDEQLKSGTASVVCLLNNFYPREAKVQWKVDNALQSGNSQESVTEQDSKDSTYSLSSTLTLSKADYEKHKVYACEVTHQGLSSPVTKSFNRGEC
heavy: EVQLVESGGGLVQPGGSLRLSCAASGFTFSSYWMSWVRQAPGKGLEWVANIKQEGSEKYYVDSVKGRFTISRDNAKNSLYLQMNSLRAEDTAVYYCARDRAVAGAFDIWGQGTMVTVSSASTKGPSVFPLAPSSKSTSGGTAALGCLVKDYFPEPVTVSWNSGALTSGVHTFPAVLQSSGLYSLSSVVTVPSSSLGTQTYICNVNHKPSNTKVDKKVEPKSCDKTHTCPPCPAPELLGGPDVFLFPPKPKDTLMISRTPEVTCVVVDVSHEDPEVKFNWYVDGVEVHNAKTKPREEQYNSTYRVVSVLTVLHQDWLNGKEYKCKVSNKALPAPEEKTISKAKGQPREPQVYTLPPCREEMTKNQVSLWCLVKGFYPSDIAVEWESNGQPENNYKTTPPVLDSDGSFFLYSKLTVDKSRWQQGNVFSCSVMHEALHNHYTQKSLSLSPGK
chain: EVQLVESGGGLIQPGGSLRLSCAVSGFTVSKNYMSWVRQAPGKGLEWVSVVYSGGSKTYADSVKGRFTISRDNSKNTLYLQMNSLRAEDTAVYYCARAVPHSPSSFDIWGQGTMVTVSSEPKSSDKTHTCPPCPAPELLGGPDVFLFPPKPKDTLMISRTPEVTCVVVDVSHEDPEVKFNWYVDGVEVHNAKTKPREEQYNSTYRVVSVLTVLHQDWLNGKEYKCKVSNKALPAPEEKTISKAKGQPREPQVCTLPPSREEMTKNQVSLSCAVKGFYPSDIAVEWESNGQPENNYKTTPPVLDSDGSFFLVSKLTVDKSRWQQGNVFSCSVMHEALHNHYTQKSLSLSPGK
notes: PD-L1×CTLA4, structure 11, knob/hole, DE
- EC50 [1]: 1.37 nM
- Maximum MFI [1]: 11100 MFI
- IC50 [2]: 96.6 nM
- Maximum inhibition rate (%) [2]: 61.3%
- Maximum MFI [3]: 468 MFI
- IC50 [4]: 1.23 nM
- Maximum inhibition rate (%) [4]: 80.2%
- fold poorer IC50 than the parent monoclonal antibody [5]: 4 to 5 fold
